# Experimental data as given in paper PMC5454996.
# Biological target: recombinant Der p 1 (mature, enzymatically active cysteine protease) (house dust mite) (UniProt P08176)
# Experiment: enzyme inhibition kinetics; time-dependent inhibition of Der p 1 (5 nM) by propeptide (30–300 nM) at pH 7, fluorogenic substrate Boc-Gln-Ala-Arg-AMC; pre-steady-state kobs against propeptide concentration by linear regression gives KD Global, kon and koff; simple 1/1 stoichiometry assumed
Kd,koff,kon,Molecule
7 nM,0.0078 s⁻¹,1.1e+06 M⁻¹ s⁻¹,"Der p 1 propeptide, wild type, full-length (1-80) (domain or fragment)"
37 nM,0.017 s⁻¹,440000 M⁻¹ s⁻¹,"Der p 1 propeptide mutant D51pA, full-length (1-80) (domain or fragment)"

# The remaining lines, values behind:
Molecule,Kd,koff,kon
"Der p 1 propeptide mutant E56pA, full-length (1-80) (domain or fragment)",5 nM,0.007 s⁻¹,1.5e+06 M⁻¹ s⁻¹
"Der p 1 propeptide mutant Y19pF, full-length (1-80) (domain or fragment)",6 nM,0.007 s⁻¹,1.2e+06 M⁻¹ s⁻¹
"Der p 1 propeptide mutant K17pA, full-length (1-80) (domain or fragment)",15 nM,0.007 s⁻¹,460000 M⁻¹ s⁻¹

# Biological target: recombinant Der p 1 (mature, enzymatically active cysteine protease) (house dust mite) (UniProt P08176)
# Experiment: not given
row,Molecule,reduction of the initial Der p 1 activity (Boc-Gln-Ala-Arg-AMC hydrolysis) by tetrapeptide (10 mM) at pH 4
1,LNAE [tetrapeptide LNAE (first half of the cleavage site LNAE80p–T1NAC)],80%
2,KYVQ [tetrapeptide KYVQ (first half of the cleavage site KYVQ40p–S41pNGG)],45%
3,FDLN [tetrapeptide FDLN (first half of the cleavage site FDLN78p–A79pETN)],75%
4,NKSY [tetrapeptide NKSY (first half of the cleavage site NKSY19p–A20pTFE)],30%

# Biological target: recombinant Der p 1 (mature, enzymatically active cysteine protease) (house dust mite) (UniProt P08176)
# Experiment: enzyme inhibition kinetics; steady-state velocities of Der p 1 at each propeptide concentration, pH 7, substrate Boc-Gln-Ala-Arg-AMC at 160 µM; KD calculated by Equation (4) because initial and steady-state velocities differed little
row,Molecule,Kd
1,"Der p 1 propeptide double mutant D51pA/E56pA, full-length (1-80) (domain or fragment)",130 nM
